Like-named read-outs stand apart in the source and are kept apart here. One block for each binder: values may come before it.
Assays:
[1] = molecular target: T1, B7-H4 expressed on cells (MX-1 cells; CHO-S cells stably expressing B7-H4) (human, UniProt Q7Z7D3 25-282); assay: flow cytometry (FACS) on MX-1 cells
T1 construct: whole, on cells; also called huB7-H4; antigens expressed by cells
T1 sequence (looked up): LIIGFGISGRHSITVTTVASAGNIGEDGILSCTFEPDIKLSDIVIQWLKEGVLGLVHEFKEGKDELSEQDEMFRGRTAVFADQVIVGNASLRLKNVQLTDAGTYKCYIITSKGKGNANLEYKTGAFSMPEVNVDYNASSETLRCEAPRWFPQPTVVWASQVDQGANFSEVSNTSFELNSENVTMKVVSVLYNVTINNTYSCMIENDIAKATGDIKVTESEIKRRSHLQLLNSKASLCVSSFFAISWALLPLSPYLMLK
Method: The cultured MX-1 cells were collected, cell density was adjusted with PBS pH 7.4, then plated onto a 96-well V-shaped bottom plate with 1×10⁵ cells per well, and centrifuged at 2000 rpm for 5 minutes to remove supernatant. 100 μl of the serially diluted chimeric antibody solution was added (diluted with 0.5% BSA in PBS to obtain a gradient of 3-fold dilutions, starting from 1 μM, with a total of 10 doses) into each well, mixed, and incubated for 1 hour at 4° C. with shaking; the culture was centrifuged at 2000 rpm for 5 minutes to remove the supernatant, and the cells were washed twice with PBS, and 100 μl of FITC-labeled goat anti-human secondary antibody (Abeam, cat #ab97224) diluted with 0.5% BSA in PBS was added into each well, mixed well and incubated for 30 minutes at 4° C. in a shaker. Centrifugation was performed at 2000 rpm for 5 minutes and the supernatant was removed. Cells were washed twice with PBS and resuspended in PBS. The signals were detected using flow cytometer (BECKMANCOULTER, model DxFLEX), and the concentration curve was plotted and the results were analyzed. As indicated in the table and figure, humanized antibodies 2F7, 2F8, 2G6 and 1C9 show positive bindings to MX-1 cells on which B7-H4 was highly expressed.

[2] = molecular target: T2, Human B7-H4 with HisFlag tag (huB7-H4-his) (human, UniProt Q7Z7D3 25-258); assay: SPR Biacore T200, antibody coupled to CM5 chip, hu-B7-H4-his in flow, 1:1 model
T2 construct: also called HuB7-H4 His protein; huB7-H4-HF
T2 sequence: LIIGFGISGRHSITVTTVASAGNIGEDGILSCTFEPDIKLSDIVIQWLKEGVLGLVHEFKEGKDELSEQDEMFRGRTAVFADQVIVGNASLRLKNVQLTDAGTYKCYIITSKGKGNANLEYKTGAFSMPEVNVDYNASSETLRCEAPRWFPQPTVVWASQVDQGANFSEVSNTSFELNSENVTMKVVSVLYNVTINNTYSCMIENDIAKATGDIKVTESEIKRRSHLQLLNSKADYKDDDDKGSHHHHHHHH

[3] = molecular target: T3, antigen fragment P12 (TVASAGNIGEDGILSCTFEP) (human); assay: indirect ELISA on antigen fragment
T3 peptide: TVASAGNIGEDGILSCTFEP

[4] = molecular target: T4, antigen fragment TVASAGNIGEDGALSCTFEP (human); assay: indirect ELISA on antigen fragment, alanine scan
T4 construct: Alanine-scan variant of P12; the entry already carries the alanine; also called P12 alanine mutant (I to A)
T4 peptide: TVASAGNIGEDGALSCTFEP

[5] = molecular target: T5, antigen fragment TVASAGNIGEDGILSATFEP (human); assay: indirect ELISA on antigen fragment, alanine scan
T5 construct: Alanine-scan variant of P12; the entry already carries the alanine; also called P12 alanine mutant (C to A)
T5 peptide: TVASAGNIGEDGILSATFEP

[6] = molecular target: T6, antigen fragment TVASAGNIGEDGILSCTAEP (human); assay: indirect ELISA on antigen fragment, alanine scan
T6 construct: Alanine-scan variant of P12; the entry already carries the alanine; also called P12 alanine mutant (F to A)
T6 peptide: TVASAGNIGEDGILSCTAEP

[7] = molecular target: T7, antigen fragment TVASAGNIGEDGILSCAFEP (human); assay: indirect ELISA on antigen fragment, alanine scan
T7 construct: Alanine-scan variant of P12; the entry already carries the alanine; also called P12 alanine mutant (T to A)
T7 peptide: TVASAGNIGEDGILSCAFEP

[8] = molecular target: T8, antigen fragment TVASAGNIGEDGILSCTFEA (human); assay: indirect ELISA on antigen fragment, alanine scan
T8 construct: Alanine-scan variant of P12; the entry already carries the alanine; also called P12 alanine mutant (P to A)
T8 peptide: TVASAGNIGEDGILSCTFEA

[9] = molecular target: T9, antigen fragment TVASAGNIGEDGIASCTFEP (human); assay: indirect ELISA on antigen fragment, alanine scan
T9 construct: Alanine-scan variant of P12; the entry already carries the alanine; also called P12 alanine mutant (L to A)
T9 peptide: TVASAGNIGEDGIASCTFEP

[10] = molecular target: T3, antigen fragment P12 …; assay: indirect ELISA on antigen fragment
Method: (§1) The method procedures were the same as described in Example 3 (1): in vitro indirect ELISA binding assay. […] To further confirm the epitope to which the antibody binds, alanine scan was performed on the antigen fragment P12, that is, each single amino acid located in P12 was mutated to alanine respectively.

[11] = molecular target: T4, antigen fragment TVASAGNIGEDGALSCTFEP; assay: indirect ELISA on antigen fragment, alanine scan
Method: as §1

[12] = molecular target: T10, antigen fragment TVASAGNIGEDGILSCTFAP (human); assay: indirect ELISA on antigen fragment, alanine scan
T10 construct: Alanine-scan variant of P12; the entry already carries the alanine; also called P12 alanine mutant (E to A)
T10 peptide: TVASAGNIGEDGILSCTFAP
Method: as §1

[13] = molecular target: T5, antigen fragment TVASAGNIGEDGILSATFEP; assay: indirect ELISA on antigen fragment, alanine scan
Method: as §1

[14] = molecular target: T6, antigen fragment TVASAGNIGEDGILSCTAEP; assay: indirect ELISA on antigen fragment, alanine scan
Method: as §1

[15] = molecular target: T7, antigen fragment TVASAGNIGEDGILSCAFEP; assay: indirect ELISA on antigen fragment, alanine scan
Method: as §1

[16] = molecular target: T9, antigen fragment TVASAGNIGEDGIASCTFEP; assay: indirect ELISA on antigen fragment, alanine scan
Method: as §1

[17] = molecular target: T3, antigen fragment P12 …; assay: indirect ELISA on antigen fragment
[18] = molecular target: T5, antigen fragment TVASAGNIGEDGILSATFEP; assay: indirect ELISA on antigen fragment, alanine scan
[19] = molecular target: T6, antigen fragment TVASAGNIGEDGILSCTAEP; assay: indirect ELISA on antigen fragment, alanine scan
[20] = molecular target: T9, antigen fragment TVASAGNIGEDGIASCTFEP; assay: indirect ELISA on antigen fragment, alanine scan

B1: humanized anti-B7-H4 antibody hu2G6 (antibody, human IgG1, kappa, V domains shown)
VH: EVQLLESGGGLVQPGGSLRLSCAASGFTFSRYGMSWVRQAPGKGLEWVSGINGGGSYTYYLDTVKGRFTISRDNARNTLYLQMSSLRAEDTAVYYCVSQGSNYYFDYWGQGTLVTVSS
VL: DIRMTQSPSSLSASVGDRVTITCHASQGISSNIGWLQQKPGKAPKALIYHGTNLEDGVPSRFSGSGSGADYTLTISSLQPEDFATYYCVQYAQFPYTFGGGTKVEIKR
notes: human IgG1 / kappa; also called humanized antibody 2G6
EC50 [1]: 14.3 nM | Kd [2]: ≤ 0.0135 nM | koff [2]: ≤ 1e-05 s⁻¹ | kon [2]: 741000 M⁻¹ s⁻¹ | EC50 [3]: 793 nM | EC50 [4]: 2630 nM | EC50 [5]: 3480 nM | EC50 [6]: 2600 nM | EC50 [7]: 2290 nM | EC50 [8]: 2370 nM | EC50 [9]: 3160 nM

B3: humanized anti-B7-H4 antibody hu2F8 (antibody, human IgG1, kappa, V domains shown)
VH: EVQLVQSGAEVKKPGASVKVSCKASGYTFTSSWMNWVRQAPGQRLEWMGGIYPNRGNIEYNEKFKGRVTLTVDTSASTAYMELSSLRSEDTAVYYCARDSRFSYWGQGTLVTVSS
VL: DIQMTQSPSSLSASVGDRVTITCKASQDVRTAVAWYQQKPGKAPKLLISSTSYRYTGVPSRFSGSGSGTDFTFTISSLQPEDIATYYCQQHYSTPLTFGGGTKVEIKR
notes: human IgG1 / kappa; also called humanized antibody 2F8
EC50 [1]: 7.26 nM | Kd [2]: 0.25 nM | koff [2]: 0.000112 s⁻¹ | kon [2]: 447000 M⁻¹ s⁻¹

The remaining binders from weak to strong by EC50 [1], led by results:

EC50 [1]: 7.32 nM | Kd [2]: 0.757 nM | koff [2]: 0.000249 s⁻¹ | kon [2]: 329000 M⁻¹ s⁻¹ | EC50 [10]: 118 nM | EC50 [11]: 771 nM | EC50 [12]: 662 nM | EC50 [13]: 2010 nM | EC50 [14]: 986 nM | EC50 [15]: 463 nM | EC50 [16]: 1480 nM
B2: humanized anti-B7-H4 antibody hu2F7 (antibody, human IgG1, kappa, V domains shown)
VH: EVQLVESGGGLVQPGGSLRLSCAASGFTFSNYYMSWVRQAPGKGLEWVAYVSSGGGSTYYSDSVKGRFTISRDNAKNTLYLQMSSLRAEDTAVYYCTRESYSQGNYFDYWGQGTTVTVSS
VL: EIVMTQSPATLSLSPGERATLSCRASQSISDYLHWYQQKPGQSPRLLIKFASQSISGIPARFSGSGSGTDFTLTISSLEPEDFAVYYCQNGHSFSLTFGQGTKLEIKR
notes: human IgG1 / kappa; also called humanized antibody 2F7

EC50 [17]: 272 nM | EC50 [1]: 7.25 nM | EC50 [18]: 292 nM | EC50 [19]: 488 nM | EC50 [20]: 467 nM | Kd [2]: ≤ 0.0298 nM | koff [2]: ≤ 1e-05 s⁻¹ | kon [2]: 335000 M⁻¹ s⁻¹
B4: humanized anti-B7-H4 antibody hu1C9 (antibody, human IgG1, kappa, V domains shown)
VH: EVQLVQSGAEVKKPGASVKVSCKASGDTFTTYWMNWVRQAPGQRLEWMGGIYLNRGSSEYNEKFKGRVTLTVDTSASTAYMELSSLRSEDTAVYYCARDSRFSYWGQGTLVTVSS
VL: DIQMTQSPSSLSASVGDRVTITCKASQDVSTAVAWYQQKPGKAPKLLISSASYRYTGVPSRFSGSGSGTDFTFTISSLQPEDIATYYCQQHYNTPLTFGGGTKVEIKR
notes: human IgG1 / kappa; also called humanized antibody 1C9

Source: patent US20210032347A1 (JIANGSU HANSOH PHARMACEUTICAL GROUP, published 2021)
